Assay: yeast display, Sf9 membrane polyspecificity reagent, FACS + sequencing; frameworks hold sequencing errors
Outline: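 Synthetic nanobody libraries on Saccharomyces cerevisiae BJ5465 were galactose-induced for 36–48 hours, stained 1 hour at 4 °C with 10% biotinylated, detergent-solubilized Sf9 membrane reagent and enriched on streptavidin microbeads. FACS then separated cells into low and high (top ~1%) gates by anti-HA (expression) and streptavidin (reagent binding) fluorescence. Genes were colony-PCR amplified, MiSeq 2 × 250 sequenced and CDR-length filtered. A clone's polyreactivity label is that of its gate of origin.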

Sequence | polyreactivity (PSR sort gate)
QVQLEESGGGIVQAGGSLRLSCAASGRTFVTNAMGWYRKAPGKERELVATINWSGGRTHYADSVKGRFTISRDNAKNTVYLQMNSLKPEDTAVYYCAKASSRRYWTIRDGDYWGQGTQVSVSS | low polyreactivity
QVQLVESGRGLVQAGGRQRLSSAASGTTFGRYAMGWTRQAPGKQRELVAAISESDGSTYYADSVKGRFTISRDNAKNTVYLQMNSLTPEDTSVYYCAAEWTHYWWYQYDYWGQGTQVTVSS | high polyreactivity
QVQLVESGGGLVQAGGSLRLSCAASGIILHYYAMGWYRQAPGKERELVAAISARGGRTYYADSVKGRFTISRDNAKNTVYLQMNSLKPEDTAVYYCARYLRRSSPSPGYGYWGQGTQVTVSS | high polyreactivity
QVQLVESGGGLVQAGGSLRLSCAASGVTFESYDMGWYRQAHGKERELVAAITWDGGSTYYADSVKGRFTISRDNAKNTVYLQMNSLKPEDTAVYYCAADFGTISIDVYSWMDYWGQGTQVTVSS | low polyreactivity
QVQLVESGGGLVQAGGSLRLSCAASGFTFVGYAMGWYRQAPGKERELVASINYSGGSTYYADSVKGRFTISRDNAKNTVYVQMNSLNPEDTAVYYCAAGGYPWYLRRGGFACYDYWGQGTQVTVSS | low polyreactivity
QVQLVESGGGLVQAGGSLRLSCAASGFTLRLYVMGWYRQAPGKERELVAAITSSGGSTYYADSVKGRFTISRDNAKNTVYLQMNSLKPEDTAVYYCAAVNRKSQLYGYWGQGTQVTVSS | high polyreactivity
QVQLVESGGGLDQAGGSLRLSCAASGITFYGYAMGWYRQAPGKEREFVAVITSTARTNYADSVKGRFTISRDNAKNTVYLQMNSLKPEDTAVYYCAARRVVRRDRYGSMDYWGQGTQVTVSS | high polyreactivity
QVQLVESGGGLVQAGGSLRLSCAASGRIFWVYAMGGYRQAPGKERELVAAINTSVGRTHYADSVKGRFTISRDNAKNTVYLQMNSLKPEDTAVYYCAADVKRYGWEYGYWGQGTQVTVSS | low polyreactivity
QVQLVESGGGLVQAGGSLRLSCAASGSIFGIYAMGWYRQAPGKERELVAAISSSGSTNYADSVKGRFTISRDNAKNTVYLQMNSLKPEDTAVYYCAAEQLSARWAYYYWGQGTQVTVSS | low polyreactivity
QVQLVESGGGLLQAGGSLRLSCAASGFTFATYAMGWYRQAPGKERELVAAISTSGGSTYYADSVKGRFTISRDNAKNTVYLQMNSLKPEDTAVYYCNAVSRSYRYAGVPGFHYDYWGQGTQVTVSS | high polyreactivity
QVQLVESGGGLVQAGGSLRLSCASSGRISASYAMGWYRQAPGKERELVAAITGSGGSTYYADSVKGRFTISRDNAKNTVYLQMNSLKPEDTAVYYCAAEPGLSVFFEFDSWGQGTQVTVSS | low polyreactivity
QVQLVESGGGLVQAGGSLRLSCAASSRIFVAKAMGWYRKAPGKERELVATITRGASTNYADSVKGRFTISRDNAKNTVYLQMNRLKPEDTAVYYCDKRSYTGYEYWGQGTQVTVSS | low polyreactivity
QVQLVESGGGLVQAGGSLRLSCAASGRIYRRNTMGWYRQAPGKERELVAAITSSGGSTYADSVKGRFTISRDNAKNTVYLQMISLKPEDSAVYYCATYVAYHRGYRTYDHWGQGTHVTVSS | low polyreactivity
QDQLVESGGGLVQAGGSLRLSCAASGLNLGIYAMGWYRQAPGKERELVAAISRGGGSTYYADSVKGRFTISRDNAKNTVYLQMNSLKPEDTAVFYCNAVRYRYGVFPYYYWGQGTQVTVSS | high polyreactivity
QLQLVESGGGLVQAGGSLRLSCAASGRTLSRYAMGWYRQAPGNERELVAVISSRGGSTYYADSVKGRFTISRDNAKNTVYLRMNSLKPEDTAVFYCAAVRNRHGYDYWGQGTQVTVSS | high polyreactivity
QVQLVESGGGLVQAGGSLRLSCAASGSTFTHYAMGWYRQAPGKERELVAAISSRGGSTYADSVKGRFTISRDNAKNTVYLQMNSLKPEDTAVYYCAARYRLYYYFRFDWGQGTQVTVSS | high polyreactivity
QVQLVESGGGLVQAGGSLRLSCAASGNTFHPYAMGWYRQAPGKERALVAAITKSGGSTYYADSVKGRFTISRDNAKNTVYLQMNSLKPEDTAVYYCATDGYEYTDYGSSGYDYWGQGTQVTVSS | low polyreactivity
QVQLQESGGGLVQAGASLRLSCAASSNNSTLDVMGWYRQAPGKEREFVASIGSGGITNYADSVKGRFTISRDNAKNTVYLQMNSLKPEDTAVYYCAVLIQAYTDLIYWGQGTQVTLSS | high polyreactivity
QVQLVESGGGLVQAGGSLRLSCAASGIIFPRYVMGWYRQAPGKERELVAAINRSGGSTYYADSVKGRFTISRDYAKNTVYLQMNSLKPEDTAVYYCAALDVRSYRGGYWGQGTQVTVSS | high polyreactivity
QVQLVESGGGLVQAGGSLRLSCAASGGIFWYYAMGWYRQAPGKERELVAGISRGGGTYYADSVKGRFTISRDNAKNTVYLQMNSLKPEDTAVYYCAVDGRYAYAYEYWGQGTQVTVSS | low polyreactivity
QVQLVESGGGLVQAGGSLRLSCAASGSIFPRYAMGWYRQAPGKERELVAAITSGGSTNYADSVKGRFTISRDNAKNTVYLQMNSLKPDDTAVYYCATVRSLKEGASYFYWGQGTQVTVSS | high polyreactivity

From the nanobody polyreactivity screen of Harvey et al. (2022)
